Where “and” joins values, the source holds several entries; their conditions need not be identical. Identical values can stand only once.
Legend:
Assay in all cases: co-sedimentation
F-actin = molecular target: F-actin
[1] = molecular target: rabbit skeletal muscle F-actin (rabbit) (UniProt P68135)
[2] = molecular target: human platelet nonmuscle F-actin (human) (UniProt P60709)

recombinant full-length small espin (natural protein)
stoichiometry N (actin monomers per espin) (F-actin): 3 and 4 | Kd [1]: 150 nM | Kd [2]: 50 nM

From paper PMC2132824
